# Assay results as given in publication PMC4072508, “Genome-Wide Prediction and Validation of Peptides That Bind Human Prosurvival Bcl-2 Proteins” (PLoS Computational Biology, 2014).
# B1: WRAP53 (peptide)
# chain: RKDAELLCWDLRQSGYPLWSLGREVT
# B2: FBXO30 (peptide)
# chain: LCQLSCVSKLMRDVLGSLLQSRGMVI
# B3: PPAT (peptide)
# chain: RLRQLGVAKKDGVLSDNFKGKRIVLV
# B4: FOXJ3 (peptide)
# chain: PKKKMTLSEIYQWICDNFPYYREAGS
# B5: DOCK2 (peptide)
# chain: SHFVACMTAILNQMLDQHYSFYIETF
# B6: MINA (peptide)
# chain: TVATRRLSGFLRTLLDRLEGTKELLS
# B7: ISOC1 (peptide)
# chain: AGYELLIQKFDSLYGDQIDMHRKFVV
# B8: SPTAN1 (peptide)
# chain: QRKHEGFERDDAALGDKVNSLGETAE
# B9: NBEAL2 (peptide)
# chain: AELRLFLAQRLRWLLDSCPASRATCV
# B10: DZIP3 (peptide)
# chain: NGGLLEFHKSLQEIGDKNDHWFDIDP
# B11: XXXX (peptide)
# chain: GTAVAYRGAHLRGRGRAVYNTFRAAP
# B12: SLC26A4 (peptide)
# chain: LSIIYTLVEIDQNIGDTNLADFTAGL
# B13: ATP2A3 (peptide)
# chain: KGTAVAICRRLGIFGDTEDVAGKAYT
# B14: RAD52 (peptide)
# chain: EAVTDGLKRADRSFGNALGNCILDKD
# B15: IGF2R (peptide)
# chain: YFKLFRASGDDRTNGDNYLYEIQLSS
# B16: KIAA0664 (peptide)
# chain: AEVMRQRGINMRYLGKVLELVLRSPA
# B17: PCYT2 (peptide)
# chain: HHSSQEMSSEYREYADSFGKCPGGRN
# B18: MINA (peptide)
# chain: TVATRRLSGFDRTLADRLEGTKELLS
# B19: RTEL1 (peptide)
# chain: RVCPYYLSRNDKQQADIIFMPYNYLL
# B20: CCDC57 (peptide)
# chain: QAGPVSSGLADRKLGDRVQLLNLLVT
# B21: STK11IP (peptide)
# chain: DSLLWKLAGLDRESGDVVLSGCSTLS
# B22: WRAP53 (peptide)
# chain: RKDAELLCWDLRQSLYPLWSLGREVT
# B23: ROS1 (peptide)
# chain: FGEYSGISENIILVLDDFWIPETSFI
# B24: SLC19A1 (peptide)
# chain: ACGDSVLARMLRELLDSLRRPQLRLW
# B25: MYBBP1A (peptide)
# chain: LALLAQPSHLMRQVARSVFGHICSHL
# B26: POFUT2 (peptide)
# chain: TRRSMVFARHDREVGDEFRSRHLNST
# B27: CCDC68 (peptide)
# chain: QASREAGAAALRNVLQRLFENYQTQS
# B28: BCL2L11 (peptide)
# chain: MRPEIWIAQELRRILDEFNAYYARRV
# Target: T1, Bfl-1, Q16548
# T1 chain: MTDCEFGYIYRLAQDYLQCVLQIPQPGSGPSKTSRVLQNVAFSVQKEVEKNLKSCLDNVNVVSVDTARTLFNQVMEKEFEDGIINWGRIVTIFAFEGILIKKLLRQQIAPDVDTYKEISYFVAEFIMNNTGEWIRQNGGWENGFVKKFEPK
# Test: peptide SPOT array, c-Myc-tagged receptor at 1 uM or 100 nM, anti-c-Myc-Cy3
row,Binder,SPOT signal as a fraction of Bim BH3's signal on the same receptor and array
1,B1,0.05
2,B2,0.38
3,B3,0.44
4,B4,0.12
5,B5,0.06
6,B6,0.21
7,B7,0.05
8,B8,0.08
9,B9,0.53
10,B10,0.04
11,B11,1.26
12,B12,0.03
13,B13,0.25
14,B14,0.03
15,B15,0.29
16,B16,0.52
17,B17,0.03
18,B18,0.12
19,B19,0.67
20,B20,0.07
21,B21,0.04
22,B22,0.05
23,B23,0.04
24,B24,0.33
25,B25,0.57
26,B26,0.61
27,B27,0.18
28,B28,0.05

# Target: T2, Mcl-1, Q07820
# T2 chain: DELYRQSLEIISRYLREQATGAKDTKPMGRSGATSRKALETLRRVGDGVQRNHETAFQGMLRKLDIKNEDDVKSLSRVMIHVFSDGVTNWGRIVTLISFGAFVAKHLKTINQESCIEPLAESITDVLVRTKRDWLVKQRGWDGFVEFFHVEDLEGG
# Test: as above
row,Binder,SPOT signal as a fraction of Bim BH3's signal on the same receptor and array
1,B1,0.06
2,B2,0.26
3,B3,0.68
4,B4,0.22
5,B5,0.07
6,B6,0.29
7,B7,0.07
8,B8,0.09
9,B9,0.72
10,B10,0.04
11,B11,1.6
12,B12,0.06
13,B13,0.19
14,B14,0.04
15,B15,0.28
16,B16,0.69
17,B17,0.04
18,B18,0.28
19,B19,1.1
20,B20,0.07
21,B21,0.04
22,B22,0.07
23,B23,0.06
24,B24,0.28
25,B25,0.57
26,B26,1.62
27,B27,0.2
28,B28,0.05

# Target: Bcl-xL, Q07817
# Sequence (Q07817 1-209): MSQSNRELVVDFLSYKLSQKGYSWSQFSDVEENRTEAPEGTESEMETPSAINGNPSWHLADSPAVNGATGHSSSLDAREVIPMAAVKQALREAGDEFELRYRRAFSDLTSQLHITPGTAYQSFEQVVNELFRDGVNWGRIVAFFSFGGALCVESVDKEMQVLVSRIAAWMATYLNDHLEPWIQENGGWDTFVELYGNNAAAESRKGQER
# Test: as above
row,Binder,SPOT signal as a fraction of Bim BH3's signal on the same receptor and array
1,B1,0.07
2,B2,0.38
3,B3,1.16
4,B4,0.33
5,B5,0.08
6,B6,0.31
7,B7,0.08
8,B8,0.08
9,B9,0.52
10,B10,0.11
11,B11,2.82
12,B12,0.07
13,B13,0.23
14,B14,0.05
15,B15,0.25
16,B16,0.94
17,B17,0.05
18,B18,0.29
19,B19,1.3
20,B20,0.1
21,B21,0.06
22,B22,0.09
23,B23,0.07
24,B24,0.71
25,B25,0.96
26,B26,0.85
27,B27,0.28
28,B28,0.1
